Molecular target: mono-nucleosome di-methylated at H3K4 (Xenopus)
Assay: native gel or EMSA

TLYCFCQRVSFGEMVACDGPNCKYEWFHYDCVNLKEPPKGTWYCPECKIE (domain or fragment, modifications not checked) [GST-PHD_(Yng2)]
Kd: 10 µM

— paper PMC4359074
